Molecular target: the molecule itself
Experiment: AUC + other: small-angle X-ray scattering (AUC-SAS); sedimentation velocity AUC (45 000 r/min, interference optics) and laboratory SAXS, 298 K; 2.0 mg/ml in 100 mM Tris-HCl pH 7.5, 100 mM NaCl; the derived profile of the main component was compared with the structure of the 24-mer and with SEC-SAXS

B1: apoferritin (natural protein)
chain: SSQIRQNYSTEVEAAVNRLVNLYLRASYTYLSLGFYFDRDDVALEGVCHFFRELAEEKREGAERLLKMQNQRGGRALFQDLQKPSQDEWGTTLDAMKAAIVLEKSLNQALLDLHALGSAQADPHLCDFLESHFLDEEVKLIKKMGDHLTNIQRLVGSQAGLGEYLFERLTLKHD
notes: apoferritin; it uses PDB 4v1w as the structure of this protein; PDB 4v1w is horse spleen apoferritin (light chain); also called AF; AF5; source: bought: Merck, Sigma-Aldrich; purified by SEC (Superose 6 Increase 10/300 GL); copies: 24
For B1, the “stoichiometry N” value was 24.

Reference: publication PMC10241049, “Derivation of the small-angle scattering profile of a target biomacromolecule from a profile deteriorated by aggregates. AUC–SAS” (Journal of Applied Crystallography, 2023)
